Measurements: patent US20220119534A1 (DRAGONFLY THERAPEUTICS, published 2022)
“And” between values parts separate entries of the source, which are not always exact repeats. Equal entries are not always repeated.

Columns and labels:
[1] = biological target: T1, mFc-hNKG2D (recombinant mFc-tagged human NKG2D dimer) (human, UniProt P26718 73-216); test: SPR; control sample
T1 construct: extracellular domain; Made in house; not shown: mouse Fc tag
T1 sequence (looked up): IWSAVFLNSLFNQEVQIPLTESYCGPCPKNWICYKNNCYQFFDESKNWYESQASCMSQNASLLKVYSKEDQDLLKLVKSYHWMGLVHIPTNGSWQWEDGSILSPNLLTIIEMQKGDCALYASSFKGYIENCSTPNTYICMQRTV

[2] = biological target: T2, Human CD16a V158 (FcγRIIIa V158) (human, UniProt P08637 17-208, biotinylated); test: SPR; control sample
T2 construct: Bought recombinant receptor; also called hCD16aV; hFcγRIIIa V158
T2 sequence (P08637 17-208 F176V limits assumed): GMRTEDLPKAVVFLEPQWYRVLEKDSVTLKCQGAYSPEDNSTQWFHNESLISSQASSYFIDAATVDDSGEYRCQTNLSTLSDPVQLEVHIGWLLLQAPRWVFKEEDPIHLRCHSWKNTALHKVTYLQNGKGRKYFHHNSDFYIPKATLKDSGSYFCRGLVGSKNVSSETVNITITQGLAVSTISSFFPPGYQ

Human CD32b = biological target: T3, Human CD32b (human, UniProt P31994 46-217, limits assumed, biotinylated); test: SPR, steady state fit
T3 construct: Bought recombinant receptor; also called hFcγRIIb
T3 sequence (looked up): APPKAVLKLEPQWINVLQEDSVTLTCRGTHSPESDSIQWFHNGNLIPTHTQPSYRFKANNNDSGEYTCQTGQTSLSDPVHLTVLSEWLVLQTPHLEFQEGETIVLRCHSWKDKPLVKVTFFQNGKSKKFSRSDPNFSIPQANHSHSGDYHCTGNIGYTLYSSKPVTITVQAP

Human CLEC12A-His [3] = biological target: T4, Human CLEC12A-His (human, UniProt Q5QGZ9 65-265); test: SPR; sample after pH 8.0, 40 C, 2 weeks
T4 construct: Recombinant soluble protein made in house; also called hCLEC12A-His; hCLEC12A; not shown: His tag
T4 sequence: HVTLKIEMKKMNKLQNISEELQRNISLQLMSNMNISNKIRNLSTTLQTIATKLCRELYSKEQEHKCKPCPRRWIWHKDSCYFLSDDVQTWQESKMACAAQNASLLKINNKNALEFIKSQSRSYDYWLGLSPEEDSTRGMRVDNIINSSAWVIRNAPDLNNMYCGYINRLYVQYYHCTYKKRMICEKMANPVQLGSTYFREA

mFc-hNKG2D = biological target: T5, mFc-hNKG2D (human, UniProt P26718 73-216); test: SPR; sample after pH 8.0, 40 C, 2 weeks
T5 construct: extracellular domain; Recombinant mFc-tagged NKG2D dimer, made in house; also called human NKG2D; not shown: mouse Fc tag
T5 sequence (looked up): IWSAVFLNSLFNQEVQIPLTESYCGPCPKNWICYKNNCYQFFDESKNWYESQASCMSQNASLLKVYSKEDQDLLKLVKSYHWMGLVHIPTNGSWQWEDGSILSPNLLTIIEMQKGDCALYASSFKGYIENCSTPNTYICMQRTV

Human CD16a V158 = biological target: T6, Human CD16a V158 (human, UniProt P08637 17-208, biotinylated); test: SPR; sample after pH 8.0, 40 C, 2 weeks
T6 construct: Bought recombinant receptor; also called hCD16a (V158); hFcγRIIIa V158
T6 sequence (P08637 17-208 F176V limits assumed): as the sequence (P08637 17-208 F176V limits assumed) above

Human FcRn = biological target: T7, Human FcRn (human, UniProt P55899 24-297; P61769 21-119); test: SPR, steady state fit; average for AB0192
T7 construct: Bought recombinant receptor; also called hFcRn
T7 sequence (P55899 24-297 limits assumed, chain 1 of 2): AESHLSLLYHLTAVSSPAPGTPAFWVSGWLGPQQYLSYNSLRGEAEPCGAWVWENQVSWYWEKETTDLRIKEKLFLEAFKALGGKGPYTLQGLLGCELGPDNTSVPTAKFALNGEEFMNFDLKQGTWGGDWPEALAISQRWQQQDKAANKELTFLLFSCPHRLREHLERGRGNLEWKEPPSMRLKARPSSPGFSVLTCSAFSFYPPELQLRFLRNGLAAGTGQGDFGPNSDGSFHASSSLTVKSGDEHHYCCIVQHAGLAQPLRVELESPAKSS
T7 sequence (P61769 21-119 limits assumed, chain 2 of 2): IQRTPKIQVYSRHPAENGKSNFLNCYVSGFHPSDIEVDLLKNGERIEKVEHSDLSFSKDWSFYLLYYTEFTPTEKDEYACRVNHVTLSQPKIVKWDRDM

Cynomolgus FcRn = biological target: T8, Cynomolgus FcRn (cynomolgus monkey, UniProt Q8SPV9 24-297; Q8SPW0 21-119); test: SPR, steady state fit; average for AB0192
T8 construct: Bought recombinant receptor; also called cFcRn; Cyno FcRn
T8 sequence (Q8SPV9 24-297 limits assumed, chain 1 of 2): as the sequence (P55899 24-297 limits assumed, chain 1 of 2) above, with N39D, E44Q, G99S, S189G, S190N, L217M, S269T counted along it
T8 sequence (Q8SPW0 21-119 limits assumed, chain 2 of 2): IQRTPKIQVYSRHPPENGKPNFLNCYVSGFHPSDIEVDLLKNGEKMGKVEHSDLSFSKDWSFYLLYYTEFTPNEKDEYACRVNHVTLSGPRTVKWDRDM

Human CLEC12A-His [4] = biological target: T4, Human CLEC12A-His; test: SPR, untreated CLEC12A; average of 3 replicates
[5] = biological target: T9, recombinant human CD32a H131 (human, UniProt P12318 36-218, limits assumed, biotinylated); test: SPR 25C, steady state, average
T9 construct: also called FcγRIIa H131
T9 sequence (looked up): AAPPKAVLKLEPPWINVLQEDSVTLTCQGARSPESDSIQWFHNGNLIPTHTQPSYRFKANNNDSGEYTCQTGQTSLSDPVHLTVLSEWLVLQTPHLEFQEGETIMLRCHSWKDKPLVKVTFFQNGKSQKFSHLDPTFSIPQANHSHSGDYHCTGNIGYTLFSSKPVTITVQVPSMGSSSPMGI

[6] = biological target: T10, recombinant cynomolgus FcRn (cynomolgus monkey, UniProt Q8SPV9 24-297; Q8SPW0 21-119); test: SPR 25C, pH 6.0, steady state; pH 6.0; third replicate
T10 construct: also called cFcRn; cyno FcRn
T10 sequence (Q8SPV9 24-297 limits assumed, chain 1 of 2): as the sequence (P55899 24-297 limits assumed, chain 1 of 2) above, with N39D, E44Q, G99S, S189G, S190N, L217M, S269T counted along it
T10 sequence (Q8SPW0 21-119 limits assumed, chain 2 of 2): as the sequence (Q8SPW0 21-119 limits assumed, chain 2 of 2) above

recombinant human FcRn = biological target: T11, recombinant human FcRn (human, UniProt P55899 24-297; P61769 21-119); test: SPR 25C, pH 6.0, steady state, average; pH 6.0; average of four replicates
T11 construct: also called hFcRn
T11 sequence (P55899 24-297 limits assumed, chain 1 of 2): as the sequence (P55899 24-297 limits assumed, chain 1 of 2) above
T11 sequence (P61769 21-119 limits assumed, chain 2 of 2): as the sequence (P61769 21-119 limits assumed, chain 2 of 2) above

B1: AB0089 TriNKET (bispecific antibody, human IgG1, kappa)
chain: QLQLQESGPGLVKPSETLSLTCTVSGFSLTNYGLHWIRQPPGKCLEWIGVIWVGGATDYNPSLKSRVTISVDTSKNQFSLKLSSVQAADTAVYYCAKGDYGDTLDYWGQGTLVTVSSGGGGSGGGGSGGGGSGGGGSDIQMTQSPSSLSASVGDRVTITCHASQNINFWLSWYQQKPGKAPKLLIYEASNLHTGVPSRFSGSGSGTDFTLTISSLQPEDFATYYCQQSHSYPLTFGCGTKLEIKGSDKTHTCPPCPAPELLGGPSVFLFPPKPKDTLMISRTPEVTCVVVDVSHEDPEVKFNWYVDGVEVHNAKTKPREEQYNSTYRVVSVLTVLHQDWLNGKEYKCKVSNKALPAPIEKTISKAKGQPREPRVYTLPPCRDELTKNQVSLTCLVKGFYPSDIAVEWESNGQPENNYKTTPPVLVSDGSFTLYSKLTVDKSRWQQGNVFSCSVMHEALHNHYTQKSLSLSPG
heavy: EVQLVESGGGLVKPGGSLRLSCAASGFTFSSYSMNWVRQAPGKGLEWVSSISSSSSYIYYADSVKGRFTISRDNAKNSLYLQMNSLRAEDTAVYYCARGAPIGAAAGWFDPWGQGTLVTVSSASTKGPSVFPLAPSSKSTSGGTAALGCLVKDYFPEPVTVSWNSGALTSGVHTFPAVLQSSGLYSLSSVVTVPSSSLGTQTYICNVNHKPSNTKVDKKVEPKSCDKTHTCPPCPAPELLGGPSVFLFPPKPKDTLMISRTPEVTCVVVDVSHEDPEVKFNWYVDGVEVHNAKTKPREEQYNSTYRVVSVLTVLHQDWLNGKEYKCKVSNKALPAPIEKTISKAKGQPREPQVCTLPPSRDELTENQVSLTCLVKGFYPSDIAVEWESNGQPENNYKTTPPVLDSDGSFFLYSWLTVDKSRWQQGNVFSCSVMHEALHNHYTQKSLSLSPG
light: DIQMTQSPSSVSASVGDRVTITCRASQGISSWLAWYQQKPGKAPKLLIYAASSLQSGVPSRFSGSGSGTDFTLTISSLQPEDFATYYCQQGVSFPRTFGGGTKVEIKRTVAAPSVFIFPPSDEQLKSGTASVVCLLNNFYPREAKVQWKVDNALQSGNSQESVTEQDSKDSTYSLSSTLTLSKADYEKHKVYACEVTHQGLSSPVTKSFNRGEC
notes: F3' format heterodimer of three chains; human IgG1 Fc with EW-RVT and Y349C/S354C mutations; also called AB0089 Lot AB0089-002; CLEC12A TriNKET AB0089
In the case of B1, the Kd [1] is reported as 797 nM, the koff [1] is reported as 0.135 s⁻¹ and the kon [1] is reported as 169000 M⁻¹ s⁻¹. For the same binder, the Kd [2] was 322 nM, the koff [2] was 0.0278 s⁻¹ and the kon [2] was 86400 M⁻¹ s⁻¹.

B2: AB0192 TriNKET (other)
chain: EVQLVESGGGVVQPGGSLRLSCAASGFTFNAFGMHWVRQAPGKCLEWVAFISSGSTSIYYANTVKGRFTISRDNSKNTLYLQMNSLRAEDTAVYYCARDGYPTGGAMDYWGQGTSVTVSSGGGGSGGGGSGGGGSGGGGSDIQMTQSPSSLSASVGDRVTITCKASQDIYNYLSWFQQKPGKAPKPLIYRANILVSGVPSRFSGSGSGQDYTFTISSLQPEDIATYYCLQFDAFPFTFGCGTKLEIKGSDKTHTCPPCPAPELLGGPSVFLFPPKPKDTLMISRTPEVTCVVVDVSHEDPEVKFNWYVDGVEVHNAKTKPREEQYNSTYRVVSVLTVLHQDWLNGKEYKCKVSNKALPAPIEKTISKAKGQPREPRVYTLPPCRDELTKNQVSLTCLVKGFYPSDIAVEWESNGQPENNYKTTPPVLVSDGSFTLYSKLTVDKSRWQQGNVFSCSVMHEALHNHYTQKSLSLSPG
heavy: EVQLVESGGGLVKPGGSLRLSCAASGFTFSSYSMNWVRQAPGKGLEWVSSISSSSSYIYYADSVKGRFTISRDNAKNSLYLQMNSLRAEDTAVYYCARGAPIGAAAGWFDPWGQGTLVTVSSASTKGPSVFPLAPSSKSTSGGTAALGCLVKDYFPEPVTVSWNSGALTSGVHTFPAVLQSSGLYSLSSVVTVPSSSLGTQTYICNVNHKPSNTKVDKKVEPKSCDKTHTCPPCPAPELLGGPSVFLFPPKPKDTLMISRTPEVTCVVVDVSHEDPEVKFNWYVDGVEVHNAKTKPREEQYNSTYRVVSVLTVLHQDWLNGKEYKCKVSNKALPAPIEKTISKAKGQPREPQVCTLPPSRDELTENQVSLTCLVKGFYPSDIAVEWESNGQPENNYKTTPPVLDSDGSFFLYSWLTVDKSRWQQGNVFSCSVMHEALHNHYTQKSLSLSPG
light: DIQMTQSPSSVSASVGDRVTITCRASQGISSWLAWYQQKPGKAPKLLIYAASSLQSGVPSRFSGSGSGTDFTLTISSLQPEDFATYYCQQGVSFPRTFGGGTKVEIKRTVAAPSVFIFPPSDEQLKSGTASVVCLLNNFYPREAKVQWKVDNALQSGNSQESVTEQDSKDSTYSLSSTLTLSKADYEKHKVYACEVTHQGLSSPVTKSFNRGEC
notes: the condition stands under assay; also called AB0192 Lot AB0192-005
B2 was tested, and the Kd (Human CD32b) was 6500 nM and 5600 nM and 5200 nM and 7000 nM, the Kd (Human CLEC12A-His [3]) was 1.66 nM and the koff (Human CLEC12A-His [3]) was 0.00128 s⁻¹. It also gave a kon (Human CLEC12A-His [3]) of 768000 M⁻¹ s⁻¹, a Kd (mFc-hNKG2D) of 779 nM and a koff (mFc-hNKG2D) of 0.121 s⁻¹. It also gave a kon (mFc-hNKG2D) of 156000 M⁻¹ s⁻¹, a Kd (Human CD16a V158) of 173 nM and a koff (Human CD16a V158) of 0.0191 s⁻¹. It also gave a kon (Human CD16a V158) of 110000 M⁻¹ s⁻¹, a Kd (Human FcRn) of 1500 nM and a Kd (Cynomolgus FcRn) of 1400 nM. For the same binder, the Kd (Human CLEC12A-His [4]) was 1.65 nM, the koff (Human CLEC12A-His [4]) was 0.00115 s⁻¹ and the kon (Human CLEC12A-His [4]) was 698000 M⁻¹ s⁻¹.

B3: F3'-1602 TriNKET (other)
chain: QLQLQESGPGLVKPSETLSLTCTVSGFSLTNYGLHWIRQPPGKCLEWIGVIWSGGKTDYNPSLKSRVTISKDTSKNQFSLKLSSVQAADTAVYYCAKYDYDDSLDYWGQGTLVTVSSGGGGSGGGGSGGGGSGGGGSDIQMTQSPSSLSASVGDRVTITCHASQNINFWLSWYQQKPGKAPKLLIYEASNLHTGVPSRFSGSGSGTRFTLTISSLQPEDIATYYCQQSHSYPLTFGCGTKLEIKGSDKTHTCPPCPAPELLGGPSVFLFPPKPKDTLMISRTPEVTCVVVDVSHEDPEVKFNWYVDGVEVHNAKTKPREEQYNSTYRVVSVLTVLHQDWLNGKEYKCKVSNKALPAPIEKTISKAKGQPREPRVYTLPPCRDELTKNQVSLTCLVKGFYPSDIAVEWESNGQPENNYKTTPPVLVSDGSFTLYSKLTVDKSRWQQGNVFSCSVMHEALHNHYTQKSLSLSPG
heavy: EVQLVESGGGLVKPGGSLRLSCAASGFTFSSYSMNWVRQAPGKGLEWVSSISSSSSYIYYADSVKGRFTISRDNAKNSLYLQMNSLRAEDTAVYYCARGAPIGAAAGWFDPWGQGTLVTVSSASTKGPSVFPLAPSSKSTSGGTAALGCLVKDYFPEPVTVSWNSGALTSGVHTFPAVLQSSGLYSLSSVVTVPSSSLGTQTYICNVNHKPSNTKVDKKVEPKSCDKTHTCPPCPAPELLGGPSVFLFPPKPKDTLMISRTPEVTCVVVDVSHEDPEVKFNWYVDGVEVHNAKTKPREEQYNSTYRVVSVLTVLHQDWLNGKEYKCKVSNKALPAPIEKTISKAKGQPREPQVCTLPPSRDELTENQVSLTCLVKGFYPSDIAVEWESNGQPENNYKTTPPVLDSDGSFFLYSWLTVDKSRWQQGNVFSCSVMHEALHNHYTQKSLSLSPG
light: DIQMTQSPSSVSASVGDRVTITCRASQGISSWLAWYQQKPGKAPKLLIYAASSLQSGVPSRFSGSGSGTDFTLTISSLQPEDFATYYCQQGVSFPRTFGGGTKVEIKRTVAAPSVFIFPPSDEQLKSGTASVVCLLNNFYPREAKVQWKVDNALQSGNSQESVTEQDSKDSTYSLSSTLTLSKADYEKHKVYACEVTHQGLSSPVTKSFNRGEC
notes: CLEC12A scFv-Fc, NKG2D A49MI Fab-Fc, human IgG1 Fc; also called AB0237
Work on B3 yielded a Kd [5] of 900 nM, a Kd [6] of 1400 nM and a Kd (recombinant human FcRn) of 1400 nM.
